Source: paper PMC7502447, “Characterization and functional analysis of two novel thermotolerant α-L-arabinofuranosidases belonging to glycoside hydrolase family 51 from Thielavia terrestris and family 62 from Eupenicillium parvum” (Applied Microbiology and Biotechnology, 2020)

Substrate: O=[N+]([O-])c1ccc(O[C@@H]2O[C@@H](CO)[C@H](O)[C@H]2O)cc1
Experiment: purified protein
Type: biochemical, Thermothielavioides terrestris
Details: standard conditions, sodium acetate buffer, optimum pH 5.0, 70 °C

B1: TtABF51A (Thermothielavioides terrestris NRRL 8126) (protein)
chain: AVTLSVAKSGGNATSPYMYGIMFEDISHSGDGGLYAELIQNRAFQNGTLDAWSAVGGATLALDTSTPLSQALPRSVKVTGGQHTAGLKNSGFWGFDVKKSKKYTGSFYSYGEYSGRFTVSLVSNTTSEIFATTTVKSKSVAGRWTQHTFELRPTKDAPDISNSFVLEYKPTPHTELKFNLISLFPPTYKNRANGMRPELMEKLKELNPTYIRCPGGNNVEGNYAGNYWNWSATVGPLKDRPGRPGTWGYYNTDGLGLVEYMHWAEDLGMDVVLAVPAGLYLDGEVVSEADLAPFVQDALNELEFLMGDVSTPYGALRAKLGYPKPWKIKFVEIGNEDNLWGGLDSYKGYRFRMFYDAIKAKYPDIFIFSSTAEYMYKQSGRDYHEYTRPDYFVSQFGMFDNWTAGNPIMIGEFASIQNNTGKLEDTDWNAPKNPWSTWIGSVAEAVFLLGAERNSDRVWGVSFAPLLQNLNSYQWTPDLISFTADPADTTVSVSYPILSLFAKHPLTHTLPATAANGTSFGPAYWVAGRNDAAGTYLLKAAVYNSTGGAEVPFRVGFDGLSRGAPATLTVLTAPGGPFAHNTPANKNAVKTAVTQLRAGEGGVLEFSLPDLSVAVLEAKW
notes: full length 640 aa; predicted 20-aa signal peptide removed; C-terminal 6xHis; predicted N-terminal CBM4_9 kept; expressed in Trichoderma reesei D-86271
Km: 300 ± 20 µM
Vmax: 108 µmol/min/mg
kcat: 123 ± 2.91 s⁻¹
